In this assay the target is T1, recombinant His-tagged full-length ERG, P11308.
T1 chain: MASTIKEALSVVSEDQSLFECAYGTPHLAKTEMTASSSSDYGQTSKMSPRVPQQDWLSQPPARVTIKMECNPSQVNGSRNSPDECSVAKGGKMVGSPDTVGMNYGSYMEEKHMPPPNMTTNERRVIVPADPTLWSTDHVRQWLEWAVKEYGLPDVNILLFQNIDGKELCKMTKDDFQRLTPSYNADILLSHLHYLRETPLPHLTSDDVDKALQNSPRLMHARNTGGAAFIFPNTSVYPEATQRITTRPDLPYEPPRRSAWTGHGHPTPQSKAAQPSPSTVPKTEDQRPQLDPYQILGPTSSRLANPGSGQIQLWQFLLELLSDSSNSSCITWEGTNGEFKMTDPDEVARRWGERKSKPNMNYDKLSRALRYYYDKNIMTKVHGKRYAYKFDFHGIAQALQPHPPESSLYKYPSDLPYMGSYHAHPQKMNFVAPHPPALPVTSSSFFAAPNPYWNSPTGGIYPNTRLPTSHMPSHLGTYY
Description: OctetRED BLI.

With GRRRQRRKKRGGTFLYPPL (modifications not checked) [RI-EIP1 retroinverso peptidomimetic], the Kd (as a rule, the constant that tells how readily two partners part at equilibrium) stood at 940 nM. Consider GRRRQRRKKRGGPLSGFSL (modifications not checked) [RI-EIP2 retroinverso peptidomimetic], for which the Kd was determined as 1280 nM.

The values are drawn from patent US20180273595A1.
